# Measurements reported in patent US20230265170A1.
# Key:
# Experiment in all cases: cell-based or functional assay
# [1] = biological target: synthetic SARS-CoV-2 spike 'BA.4 + all' (SARS-CoV-2 (synthetic variant))
# [2] = biological target: SARS-CoV-2 spike (S) protein of the variant printed 'BA.1' in column 9 of Table 32 (SARS-CoV-2)
# [3] = biological target: SARS-CoV-2 Omicron BA.2 spike (S) protein (SARS-CoV-2)
# [4] = biological target: SARS-CoV-2 Omicron BA.1 spike (S) protein (SARS-CoV-2)
# [5] = biological target: SARS-CoV-2 Omicron BA.3 spike (S) protein (SARS-CoV-2)
# Chain of Omi-42 (antibody) (VH): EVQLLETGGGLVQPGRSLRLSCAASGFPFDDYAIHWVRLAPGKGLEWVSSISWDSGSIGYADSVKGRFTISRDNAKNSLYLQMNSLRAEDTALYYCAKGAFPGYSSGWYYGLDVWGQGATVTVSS
# Chain of Omi-42 (antibody) (VL): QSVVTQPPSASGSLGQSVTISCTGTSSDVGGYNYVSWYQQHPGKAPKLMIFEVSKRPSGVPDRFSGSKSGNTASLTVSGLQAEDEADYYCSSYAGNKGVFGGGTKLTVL
# Chain of Omi-29 (antibody) (VH): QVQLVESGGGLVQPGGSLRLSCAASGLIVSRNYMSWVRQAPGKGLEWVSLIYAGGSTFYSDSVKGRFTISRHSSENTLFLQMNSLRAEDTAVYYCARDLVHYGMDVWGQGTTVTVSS
# Chain of Omi-29 (antibody) (VL): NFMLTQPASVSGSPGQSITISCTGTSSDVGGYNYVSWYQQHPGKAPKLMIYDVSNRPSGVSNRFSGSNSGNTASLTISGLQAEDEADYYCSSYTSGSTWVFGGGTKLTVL
# Chain of AZD8895 (antibody) (VH): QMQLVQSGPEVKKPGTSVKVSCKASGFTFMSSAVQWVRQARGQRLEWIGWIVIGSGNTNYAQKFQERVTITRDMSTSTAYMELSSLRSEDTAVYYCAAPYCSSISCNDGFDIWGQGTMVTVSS
# Chain of AZD8895 (antibody) (VL): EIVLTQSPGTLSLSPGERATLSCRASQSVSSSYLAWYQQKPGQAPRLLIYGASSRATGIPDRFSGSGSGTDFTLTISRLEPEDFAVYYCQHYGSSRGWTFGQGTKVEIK
# Chain of Omi-18 (antibody) (VH): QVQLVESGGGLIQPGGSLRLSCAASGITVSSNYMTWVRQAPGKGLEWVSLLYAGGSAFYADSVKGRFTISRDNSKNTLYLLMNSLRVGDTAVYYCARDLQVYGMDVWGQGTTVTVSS
# Chain of Omi-18 (antibody) (VL): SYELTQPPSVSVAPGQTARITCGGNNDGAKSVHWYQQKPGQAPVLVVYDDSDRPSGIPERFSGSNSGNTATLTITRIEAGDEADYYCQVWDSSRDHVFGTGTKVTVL
# Chain of Omi-32 (antibody) (VH): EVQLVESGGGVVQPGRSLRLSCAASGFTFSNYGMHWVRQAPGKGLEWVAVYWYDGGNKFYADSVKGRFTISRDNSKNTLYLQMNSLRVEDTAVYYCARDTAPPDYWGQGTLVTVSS
# Chain of Omi-32 (antibody) (VL): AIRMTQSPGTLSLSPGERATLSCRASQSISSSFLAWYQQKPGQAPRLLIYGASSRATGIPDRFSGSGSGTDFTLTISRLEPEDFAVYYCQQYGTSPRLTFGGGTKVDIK
# Chain of Omi-12 (antibody) (VH): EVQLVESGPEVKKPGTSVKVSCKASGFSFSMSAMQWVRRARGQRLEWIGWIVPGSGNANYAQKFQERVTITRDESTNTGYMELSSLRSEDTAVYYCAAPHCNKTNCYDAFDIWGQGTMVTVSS
# Chain of Omi-12 (antibody) (VL): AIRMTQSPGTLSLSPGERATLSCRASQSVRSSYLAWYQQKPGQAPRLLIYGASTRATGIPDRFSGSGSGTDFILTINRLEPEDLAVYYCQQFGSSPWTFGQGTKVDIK
Substance,IC50 (pseudovirus neutralization) [1],IC50 (pseudovirus neutralization) [2],"IC50, pseudoviral neutralization [3]","IC50, pseudoviral neutralization [4]","IC50, pseudoviral neutralization [5]"
AZD1061 (antibody),> 10 mg/L,> 10 mg/L,,,
ADG20 (antibody),> 10 mg/L,> 10 mg/L,,,
REGN10933 (antibody),> 10 mg/L,> 10 mg/L,,,
Omi-18 (antibody),3.61 mg/L,0.005 mg/L,,,
AZD7442,> 10 mg/L,2.73 mg/L,0.008 mg/L,0.232 mg/L,0.065 mg/L
Omi-42 (antibody),0.008 mg/L,0.01 mg/L,,,
REGN10987 (antibody),> 10 mg/L,> 10 mg/L,,,
Omi-03 (antibody),0.432 mg/L,0.014 mg/L,,,
Ly-CoV16 (antibody),> 10 mg/L,> 10 mg/L,,,
S309 (antibody),0.582 mg/L,0.436 mg/L,,,
Ly-CoV1404 (antibody),> 10 mg/L,> 10 mg/L,,,
AZD8895 (antibody),> 10 mg/L,5.11 mg/L,,,
Omi-29 (antibody),> 10 mg/L,0.025 mg/L,,,
Ly-CoV555 (antibody),> 10 mg/L,> 10 mg/L,,,
Omi-12 (antibody),> 10 mg/L,0.004 mg/L,,,
Omi-32 (antibody),> 10 mg/L,> 10 mg/L,,,
